Test results published in patent US20170131281A1.

What was measured:
[1] = molecular target: KG1 cells surface antigen (6B protein binding surface antigen, unidentified); assay: flow cytometry on KG1 cells, sandwich with anti-c-myc-FITC
[2] = molecular target: HL60 cells surface antigens; assay: flow cytometry on HL60 cells, sandwich with anti-c-myc-FITC

B1: 6B antibody in an scFv format (Clone 6B) (scFv, not shown: small tags and cut ends)
scFv: EVQLLESGGGLVQPGGSLRLSCAASGFTFSSYGMSWVRQAPGKGLEWVSTIRTAGRATEYADSVKGRFTISRDNSKNTLYLQMNSLRAEDTAVYYCAKSPQTFDYWGQGTLVTVSSGGGGSGGGGSGGGGSTDIQMTQSPSSLSASVGDRVTITCRASQSISSYLNWYQQKPGKAPKLLIYRASRLQSGVPSRFSGSGSGTDFTLTISSLQPEDFATYYCQQRLTIPITFGQGTKVEIKRAAA
B1 was tested, and the FITC+: % Vis [1] was 100%, the FITC+: GeoMean [1] was 28.1 and the FITC+: mean [1] was 29.4. The FITC+: median [1] was 28.4, the FITC+: % Vis [2] was 4.5% and the FITC+: GeoMean [2] was 9.8. The FITC+: mean [2] was 10.7 and the FITC+: median [2] was 8.9.
